Among the data in PMC7589773 are stoichiometry N values, retold here.

In this assay the target is AAV-DJ capsid viral protein (VP) subunit of the empty capsid (virus-like particle). Put plainly: cryo-EM structure; empty AAV-DJ capsids (VLPs) in 50 mM HEPES, 25 mM MgCl2, 25 mM NaCl, pH 7.4; I1 symmetry imposed; 1.56 Å resolution.

As for “AAV-DJ capsid viral protein (VP) subunit of the empty capsid (virus-like particle)”, the stoichiometry N (as a rule, a count of units in the complex or per binding partner) came to 60.
